B1: Cyr61: Cysteine-rich ECM signaling protein; murine sequence SEQ ID NO:2, recombinant from Baculovirus-infected Sf9 cells (protein, listed as Mus musculus)
chain: MSSSTFRTLAVAVTLLHLTRLALSTCPAACHCPLEAPKCAPGVGLVRDGCGCCKVCAKQLNEDCSKTQPCDHTKGLECNFGASSTALKGICRAQSEGRPCEYNSRIYQNGESFQPNCKHQCTCIDGAVGCIPLCPQELSLPNLGCPNPRLVKVSGQCCEEWVCDEDSIKDSLDDQDDLLGLDASEVELTRNNELIAIGKGSSLKRLPVFGTEPRVLFNPLHAHGQKCIVQTTSWSQCSKSCGTGISTRVTNDNPECRLVKETRICEVRPCGQPVYSSLKKGKKCSKTKKSPEPVRFTYAGCSSVKKYRPKYCGSCVDGRCCTPLQTRTVKMRFRCEDGEMFSKNVMMIQSCKCNYNCPHPNEASFRLYSLFNDIHKFRD
B2: Fisp12: Cysteine-rich murine protein, SEQ ID NO:6, mouse ortholog of CTGF (protein, listed as Mus musculus)
chain: MLASVAGPISLALVLLALCTRPATGQDCSAQCQCAAEAAPHCPAGVSLVLDGCGCCRVCAKQLGELCTERDPCDPHKGLFCDFGSPANRKIGVCTAKDGAPCVFGGSVYRSGESFQSSCKYQCTCLDGAVGCVPLCSMDVRLPSPDCPFPRRVKLPGKCCKEWVCDEPKDRTAVGPALAAYRLEDTFGPDPTMMRANCLVQTTEWSACSKTCGMGISTRVTNDNTFCRLEKQSRLCMVRPCEADLEENIKKGKKCIRTPKIAKPVKFELSGCTSVKTYRAKFCGVCTDGRCCTPHRTTTLPVEFKCPDGEIMKKNMMFIKTCACHYNCPGDNDIFESLYYRKMYGDMA

Tests used:
[1] = test system: mink lung epithelial (Mv1Lu) cells; assay: Fisp12 cell attachment assay, Mv1Lu cells; assay type: cell-based; details: coating 20 μg/ml
Procedure: (§1) The capacity of Fisp12 to affect cell adhesion was also investigated. Fisp12 cell attachment assays were performed essentially as described (Oliver et al., [1989]). 96-well immunological plates were coated for 16 hours at 4° C. with 20 μg/ml Cyr61, Fisp12 or fibronectim (Gibco BRL) in PBS containing 0.1 mg/ml BSA and blocked with 10 mg/ml BSA for 1 hour at room temperature. HUVE cells were plated at 10^4 cells/well in F12K media with 10% FBS (Hyclone Laboratories, Inc., Logan, Utah); NIH 3T3 fibroblasts were plated at 3×10^4 cells/well and Mv1Lu cells were plated at 5×10^4 cells/well in minimal essential medium (MEM) with 10% FBS. After 1 hour incubation cells were fixed, stained with methylene blue and quantified as described (Oliver et al., [1989]). Cell spreading was examined on cells plated on 100 mm polystyrene petri dishes coated with 2.5 ml of a 20 μg/ml solution of Cyr61, Fisp12 or fibronectin. 10^7 cells were plated on each dish and cell spreading was analyzed 90 minutes after plating by microscopy at 100× magnification.

NIH 3T3 fibroblasts = assay: Thymidine incorporation (mitogen potentiation), NIH 3T3; assay type: cell-based, mouse
Procedure: More specifically, NIH 3T3 fibroblast cells were plated on 24-well plates at 3×10^4 cells/well and grown in DMEM with 10% fetal bovine serum (Intergen Co., Purchase, N.Y.) for 3-4 days and incubated with medium containing 0.2% FBS for the following 48 hours. The following compounds, at the parenthetically noted final concentrations, were then added to the plated cells in fresh DMEM containing 0.2% fbs and [^3H]-thymidine (1 μCi/ml final concentration; ICN Biomedicals, Inc., Costa Mesa, Calif.): bFGF (15 ng/ml), PDGF-BB (30 ng/ml), and murine Cyr61 (0.5-5 μg/ml). These compounds were added to individual plates according to the following pattern: 1) no supplementation; 2) murine Cyr61; 3) bFGF; 4) murine Cyr61 and bFGF; 5) PDGF-BB; and 6) murine Cyr61 and PDGF. After 18-20 hours of incubation, cells were washed with PBS and fixed with 10% trichloroacetic acid. DNA was dissolved in 0.1 N NaOH and thymidine incorporation was determined. […] Without any supplements, 3T3 cells incorporated approximately 1.8×10^4 cpm of [^3H]-thymidine, in the presence or absence of Cyr61. Cells exposed to bFGF alone incorporated about 1.2×10^5 cpm; cells contacting bFGF and murine Cyr61 incorporated 2×10^5 cpm. Cells receiving PDGF-BB incorporated about 1.2×10^5 cpm; and cells exposed to PDGF-BB and murine Cyr61 incorporated approximately 2.4×10^5 cpm.
(§2) DNA synthesis for HUVE cells and NIH 3T3 fibroblasts was measured by thymidine incorporation as described previously (Kireeva et al., [1996]) with minor modifications. HUVE cells were grown in 24-well plates to a subconfluent state, serum-starved for 24 hours and treated with F12K medium containing 10% fetal bovine serum (FBS), 1 μCi/ml [^3H]-thymidine and 10 ng/ml basic Fibroblast Growth Factor (bFGF) (Gibco-BRL, Inc.) with various concentrations of Cyr61 and Fisp12 as indicated. NIH 3T3 fibroblasts were grown to subconlfluence, serum-starved for 48 hours, and treated with Minimal Essential Medium (MEM) containing 0.5% FBS, 1 μCi/ml [^3H]-thymidine, bFGF and various concentrations of Cyr61 or Fisp12. Thymidine incorporation into the trichloroacetic acid-insoluble fraction was determined after 24 hour incubation. Logarithmically grown mink lung epithelial cells (Mv1lu, CCL64) were treated with various concentrations of TGF-β1 (Gibco-BRL) and 2 μg/ml of Cyr61 or Fisp12 for 18 hours; [^3H]-thymidine was then added to 1 μCi/ml for 2 hours. Thymidine incorporation was determnined as described above.

HUVE cells = assay: Fisp12 cell attachment assay, HUVE cells; assay type: cell-based, human; details: coating 20 μg/ml, HUVE cells
Procedure: as §1

[2] = test system: mink lung epithelial cells (Mv1lu, CCL64); assay: TGF-β inhibition of DNA synthesis; assay type: cell-based; details: 2 μg/ml, 18 hours
Procedure: as §2

αllbβ3 = biological target: T1, αllbβ3 (Homo sapiens, UniProt P05106+P08514); assay: Solid-phase binding assay with purified integrin; details: for Kd: RGD-affinity purified αllbβ3, immobilized protein, read-out: half-saturation of activated αllbβ3 binding
T1 construct: from tissue; host or cells: outdated human platelets
Procedure: In these experiments, activated and unactivated αllbβ3 were purified from platelet lysates. Activated αllbβ3 was purified by RGD affinity chromatography, as described (Knezevic et al., J. Biol. Chem. 271:16416-16421 [1996]). Briefly, outdated human platelets were isolated by differential centrifugation and solubilized in lysis buffer (10 mM HEPES, pH 7.4, 0.15 M NaCl, containing 1 mM CaCl2, 1 mM MgCl2 100 μM leupeptin, 1 mM phenylmethylsulfonyl fluoride, 10 mM-ethylmaleimide, and 50 mM octylglucoside). The octylglucoside extract was incubated with 1 ml GRGDSPK-coupled Sepharose 4B overnight at 4° C. After washing with 15 ml column buffer (same as lysis buffer except it contained 25 mM octylglucoside), bound αllbβ3 was eluted with 1.7 mM H12 (2 ml) in column buffer. The H12 eluate was applied to a Sephacryl S-300 High Resolution column (1.5×95 cm), and αllbβ3 was eluted with 10 mM HEPES, pH 7.4, 0.15 M NaCl, 1 mM CaCl2, 1 mM MgCl2 and 25 mM octylglucoside.
Unactivated αllbβ3 was isolated by the method of Fitzgerald et al., Anal. Biochem. 151:169-177 (1985), with slight modifications. The flow-through fraction of the GRGDSPK-Sepharose column was applied to a concanavalin A-Sepharose 4B column (1×20 cm). Unbound proteins were washed with 50 ml column buffer, and bound αllbβ3 was then eluted with 100 mM mannose dissolved in column buffer. Fractions containing αllbβ3 were further purified on a Sephacryl S-300 High Resolution column
To perform the solid-phase binding assay, purified αllbβ3 was added to wells coated with either Cyr61 or Fisp12 (mCTGF) in the presence or absence of inhibitors and binding was allowed to proceed for 3 hours at 37° C. Unbound receptor was removed and the wells wee washed twice with HEPES-Tyrode's Buffer. The binding of purified αllbβ3 to Cyr61 or Fisp12/mCTGF immobilized onto microtiter wells was detected with ^125I-mAb15.

Molecule	cell attachment to coated dishes [1]	[3H]-thymidine incorporation with PDGF-BB (NIH 3T3 fibroblasts; PDGF-BB 30 ng/ml plus murine Cyr61 0.5-5 μg/ml)	[3H]-thymidine incorporation with bFGF (NIH 3T3 fibroblasts; bFGF 15 ng/ml plus murine Cyr61 0.5-5 μg/ml)	minimum concentration for enhancement of bFGF- or PDGF-BB-induced thymidine incorporation (NIH 3T3 fibroblasts; either cell type (NIH 3T3 or HUVE))	[3H]-thymidine incorporation, no growth factor (NIH 3T3 fibroblasts; presence or absence of Cyr61)	cell attachment to coated dishes (HUVE cells)	effect on TGF-β inhibition of DNA synthesis [2]	binding of activated versus unactivated αllbβ3 (αllbβ3)	Kd (αllbβ3)	enhancement of FGF-induced DNA synthesis (NIH 3T3 fibroblasts; NIH 3T3 fibroblasts)	mitogenic activity by itself (NIH 3T3 fibroblasts; any tested assay conditions)
B1	promoted the attachment	approximately 2.4×10^5 cpm	2×10^5 cpm	0.5 to 1.0 µg/mL	approximately 1.8×10^4 cpm	promoted the attachment	enhanced the ability of TGF-β to inhibit DNA synthesis	greater binding of activated versus unactivated	25 nM	–	–
B2	promoted the attachment	–	–	–	–	promoted the attachment	enhanced the ability of TGF-β to inhibit DNA synthesis	greater binding of activated versus unactivated	15 nM	enhance DNA synthesis induced by fibroblast growth factor	did not exhibit any mitogenic activity
